{"source": "paper PMC9637774", "binders": {"B1": {"name": "model pre-miRNA (structured_RNA)", "RNA": "UGAGGUAGUAGGUUGUAUAGUAGUAAUUACACAUCAUACUAUACAACCUACUACCUCUCU", "modifications": "5' phosphate"}, "B2": {"name": "pre-let-7 (structured_RNA)", "RNA": "B1 RNA with C47U, C48G, A50G, C54G, C57U", "modifications": "5' phosphate"}, "B3": {"name": "nicked model pre-miRNA (5' arm cleaved) (structured_RNA)", "RNA 1": "UGAGGUAGUAGGUUGUAUAGUA", "RNA 2": "GUAAUUACACAUCAUACUAUACAACCUACUACCUCUCU", "modifications": "5' phosphate"}, "B4": {"name": "model miRNA/miRNA* duplex (dsRNA)", "RNA 1": "UGAGGUAGUAGGUUGUAUAGUA", "RNA 2": "CUAUACAACCUACUACCUCUCU", "modifications": "5' phosphates"}}, "key": {"[1]": {"target": "T1, Dicer-1 (Dcr-1);Loqs-PB (Loquacious isoform PB) (Drosophila melanogaster;Drosophila …, UniProt Q9VCU9;Q9VJY9 1-2249;1-465, |)", "T1 sequence (Q9VCU9 whole entry, chain 1 of 2, canonical isoform)": "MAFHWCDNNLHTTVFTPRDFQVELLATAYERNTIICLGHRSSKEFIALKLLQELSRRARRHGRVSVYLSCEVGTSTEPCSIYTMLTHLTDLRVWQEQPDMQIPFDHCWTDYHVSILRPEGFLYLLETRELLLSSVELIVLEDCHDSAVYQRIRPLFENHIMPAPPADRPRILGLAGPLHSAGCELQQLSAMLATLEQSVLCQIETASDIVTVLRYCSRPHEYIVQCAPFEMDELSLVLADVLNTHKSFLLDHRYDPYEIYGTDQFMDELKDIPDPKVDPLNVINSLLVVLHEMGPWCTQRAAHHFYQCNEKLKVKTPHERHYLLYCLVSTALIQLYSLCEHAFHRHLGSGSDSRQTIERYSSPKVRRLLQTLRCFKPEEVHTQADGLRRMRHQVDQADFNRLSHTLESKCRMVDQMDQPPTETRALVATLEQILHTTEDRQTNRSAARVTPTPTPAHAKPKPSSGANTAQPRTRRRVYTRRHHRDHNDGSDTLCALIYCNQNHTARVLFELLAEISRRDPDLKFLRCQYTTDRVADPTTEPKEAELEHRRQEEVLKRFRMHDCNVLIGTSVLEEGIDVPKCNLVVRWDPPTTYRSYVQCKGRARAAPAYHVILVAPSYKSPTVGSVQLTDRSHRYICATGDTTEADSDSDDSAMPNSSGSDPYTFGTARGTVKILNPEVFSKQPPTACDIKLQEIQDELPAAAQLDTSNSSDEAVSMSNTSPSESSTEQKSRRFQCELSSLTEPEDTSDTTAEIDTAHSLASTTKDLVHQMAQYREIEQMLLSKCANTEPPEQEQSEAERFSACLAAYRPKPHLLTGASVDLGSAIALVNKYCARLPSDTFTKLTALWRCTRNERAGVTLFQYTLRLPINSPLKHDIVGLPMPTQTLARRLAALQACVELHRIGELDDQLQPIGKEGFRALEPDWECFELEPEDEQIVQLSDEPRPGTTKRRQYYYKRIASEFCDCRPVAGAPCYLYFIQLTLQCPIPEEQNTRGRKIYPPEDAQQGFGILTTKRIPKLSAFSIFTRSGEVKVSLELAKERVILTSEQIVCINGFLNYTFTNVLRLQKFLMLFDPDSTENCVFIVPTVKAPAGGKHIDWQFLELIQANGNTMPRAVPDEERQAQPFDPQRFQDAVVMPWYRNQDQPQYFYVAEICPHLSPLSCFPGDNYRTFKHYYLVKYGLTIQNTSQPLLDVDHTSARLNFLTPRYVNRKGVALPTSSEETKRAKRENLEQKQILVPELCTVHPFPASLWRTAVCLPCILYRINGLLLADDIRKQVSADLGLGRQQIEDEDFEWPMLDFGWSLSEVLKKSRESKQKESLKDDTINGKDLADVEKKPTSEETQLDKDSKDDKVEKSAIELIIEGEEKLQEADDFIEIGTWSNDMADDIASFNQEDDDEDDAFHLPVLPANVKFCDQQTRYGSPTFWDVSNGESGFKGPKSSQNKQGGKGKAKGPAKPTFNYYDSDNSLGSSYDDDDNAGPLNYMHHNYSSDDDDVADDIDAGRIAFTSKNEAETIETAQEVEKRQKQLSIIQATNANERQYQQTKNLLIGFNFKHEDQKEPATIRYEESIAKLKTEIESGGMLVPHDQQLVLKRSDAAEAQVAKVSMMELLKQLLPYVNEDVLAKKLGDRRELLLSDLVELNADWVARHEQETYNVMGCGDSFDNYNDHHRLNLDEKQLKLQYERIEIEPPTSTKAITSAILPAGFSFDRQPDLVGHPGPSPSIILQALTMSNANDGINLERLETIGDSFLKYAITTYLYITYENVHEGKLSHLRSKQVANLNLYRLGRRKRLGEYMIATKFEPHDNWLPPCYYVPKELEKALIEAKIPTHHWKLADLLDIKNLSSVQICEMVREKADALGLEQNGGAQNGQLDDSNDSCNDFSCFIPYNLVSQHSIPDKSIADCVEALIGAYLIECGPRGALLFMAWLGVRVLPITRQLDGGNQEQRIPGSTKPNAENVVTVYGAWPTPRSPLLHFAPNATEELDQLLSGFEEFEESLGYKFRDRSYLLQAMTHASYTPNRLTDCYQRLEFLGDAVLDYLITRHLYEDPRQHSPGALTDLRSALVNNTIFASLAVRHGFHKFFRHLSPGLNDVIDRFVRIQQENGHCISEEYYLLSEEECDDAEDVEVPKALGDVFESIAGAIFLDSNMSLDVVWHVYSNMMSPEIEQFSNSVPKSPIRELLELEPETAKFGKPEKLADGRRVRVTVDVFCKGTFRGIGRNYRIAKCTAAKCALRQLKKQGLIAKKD", "T1 sequence (Q9VJY9 whole entry, chain 2 of 2, canonical isoform)": "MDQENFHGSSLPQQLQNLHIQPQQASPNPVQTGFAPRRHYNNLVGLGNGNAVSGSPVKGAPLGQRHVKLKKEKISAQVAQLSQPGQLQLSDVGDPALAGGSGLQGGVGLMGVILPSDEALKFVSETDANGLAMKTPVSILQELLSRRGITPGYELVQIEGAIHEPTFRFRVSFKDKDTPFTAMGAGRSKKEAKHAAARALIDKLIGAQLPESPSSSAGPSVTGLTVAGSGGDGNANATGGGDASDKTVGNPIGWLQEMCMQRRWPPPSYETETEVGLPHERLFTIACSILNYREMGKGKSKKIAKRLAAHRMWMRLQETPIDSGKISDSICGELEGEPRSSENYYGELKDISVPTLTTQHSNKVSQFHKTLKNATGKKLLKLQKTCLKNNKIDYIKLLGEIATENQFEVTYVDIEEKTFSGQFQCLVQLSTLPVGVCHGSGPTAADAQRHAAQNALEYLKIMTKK", "assay": "cryo-EM structure"}, "[2]": {"target": "T1, Dicer-1 (Dcr-1);Loqs-PB (Loquacious …)", "assay": "competition"}, "[3]": {"target": "T1, Dicer-1 (Dcr-1);Loqs-PB (Loquacious …)", "assay": "cryo-EM structure", "remark": "listed apart in the source"}, "[4]": {"target": "T1, Dicer-1 (Dcr-1);Loqs-PB (Loquacious …)", "assay": "cryo-EM structure", "remark": "listed apart in the source"}}, "note": "Positions count from the first letter of the chain named."}
{"binder": "B1", "values": [{"measurement": "binding result", "setting": "[1]", "result": "binds"}]}
{"binder": "B2", "values": [{"measurement": "binding result", "setting": "[2]", "result": "binds"}]}
{"binder": "B3", "values": [{"measurement": "binding result", "setting": "[3]", "result": "binds"}]}
{"binder": "B4", "values": [{"measurement": "binding result", "setting": "[4]", "result": "binds"}]}
